Test results taken from the supplement of paper PMC10567573.

B1: FUT8 (parent)
chain: YAHQPRTADEIPMEPGDIIGVAGN
B2: PHTF1 (parent)
chain: SRHLNSQVKKTTTRWCHIVRDSDS

Variants of: B1
Test: protein stability index of a GFP-peptide fusion (GPS, HEK-293T) (PSI 1-6); higher = more stable
Conditions: c terminus: a fixed tail appended
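Also: lentivirally expressed fusions sorted by FACS into six bins by GFP to DsRed ratio, PSI derived from sequencing read proportions per bin multiplied by bin number.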

| Variant | protein stability index |
| --- | --- |
| YAHQPRTADEIPMEPGTIIGVAGN | 3.38 |
| YAHQPRTADEIPMEPGCIIGVAGN | 2.79 |
| YQHQPRTADEIPMEPGDIIGVAGN | 4.09 |
| YTHQPRTADEIPMEPGDIIGVAGN | 4.49 |
| YAHQPRTADEIPTEPGDIIGVAGN | 4.34 |
| YAHQPRTADEIPWEPGDIIGVAGN | 3.08 |
| YAHQPRTADEIPSEPGDIIGVAGN | 4.07 |
| YAHQPRTADEIPFEPGDIIGVAGN | 3.43 |
| YAHQPRTADEIPYEPGDIIGVAGN | 4.12 |
| FAHQPRTADEIPMEPGDIIGVAGN | 3.6 |
| GAHQPRTADEIPMEPGDIIGVAGN | 5.17 |
| TAHQPRTADEIPMEPGDIIGVAGN | 5.16 |
| RAHQPRTADEIPMEPGDIIGVAGN | 4.84 |
| YAHQPRTADEIPMEPGDIIGWAGN | 3.03 |
| YAHQPRTADEIPMEPGDIIGQAGN | 4.22 |
| YAHQPRTADEIPMEPGDIIGIAGN | 3.93 |
| YAHQPRTADEIPMEPGDIIGHAGN | 4.15 |
| YAHQPFTADEIPMEPGDIIGVAGN | 3.46 |
| YAHQPRTADTIPMEPGDIIGVAGN | 3.66 |
| YAHQPRTADRIPMEPGDIIGVAGN | 2.96 |
| YAHQPRTADHIPMEPGDIIGVAGN | 3.33 |
| YAHQPRTADGIPMEPGDIIGVAGN | 2.53 |

| Variant | protein stability index |
| --- | --- |
| YAHQPRTADLIPMEPGDIIGVAGN | 3.56 |
| YAHQPRTADCIPMEPGDIIGVAGN | 3.25 |
| YAHQPRTADYIPMEPGDIIGVAGN | 3.06 |
| YARQPRTADEIPMEPGDIIGVAGN | 3.44 |
| YADQPRTADEIPMEPGDIIGVAGN | 4.78 |
| YAGQPRTADEIPMEPGDIIGVAGN | 3.36 |
| YAHQPRTADEIPMEPGDQIGVAGN | 4.07 |
| YAHQPRTADEIPMEPGDHIGVAGN | 3.71 |
| YAHQPRTADEIPMEPGDAIGVAGN | 3.83 |
| YAHQPRTADEIPMEPDDIIGVAGN | 4.61 |
| YAHQPRTADEIPMEPCDIIGVAGN | 3.5 |
| YAHQPRTADEIPMEPWDIIGVAGN | 2.12 |
| YAHQPRTADEIPMEPNDIIGVAGN | 4.16 |
| YAHQPRTADEIPMEPQDIIGVAGN | 4.17 |
| YAHQPRTADEIPMEPTDIIGVAGN | 3.86 |
| YAHQPRTADEIPMEPIDIIGVAGN | 3.44 |
| YAHQPRTADEIPMNPGDIIGVAGN | 3.25 |
| YAHQPRTADEIPMCPGDIIGVAGN | 3.32 |
| YAHQPRTADEIPMTPGDIIGVAGN | 3.9 |
| YAHQPRTADEIPMWPGDIIGVAGN | 2.1 |
| YAHQPRTADEIPMQPGDIIGVAGN | 3.47 |
| YAHQPRTADEIPMEYGDIIGVAGN | 3.31 |

| Variant | protein stability index |
| --- | --- |
| YAHQPRTADEIPMENGDIIGVAGN | 4.08 |
| YAHQPRTADEIPMEPGDIIGVHGN | 3.97 |
| YAHQPRTADEIPMEPGDIIGVWGN | 2.41 |
| YAHQPRTADEIPMEPGDIIGVIGN | 3.12 |
| YAHQPRTEDEIPMEPGDIIGVAGN | 4.4 |
| YAHQPRTLDEIPMEPGDIIGVAGN | 3.43 |
| YAHQPRTSDEIPMEPGDIIGVAGN | 3.87 |
| YAHQPRTMDEIPMEPGDIIGVAGN | 3.74 |
| YAHQPRTADEIPMEPGDIIYVAGN | 3.37 |
| YAHQPRTADEIPMEPGDIITVAGN | 4.37 |
| YAHQPRTADEIPMEPGDIISVAGN | 3.86 |
| YAHQPRTADEIPMEPGDIIVVAGN | 3.5 |
| YAHQPRTADEIPMEPGDIIFVAGN | 3.55 |
| YAHQPRTADEHPMEPGDIIGVAGN | 4.06 |
| YAHQPRTADEYPMEPGDIIGVAGN | 3.93 |
| YAHQPRTAPEIPMEPGDIIGVAGN | 3.33 |
| YAHQPRTAWEIPMEPGDIIGVAGN | 2.16 |
| YAHQPRTAREIPMEPGDIIGVAGN | 3.41 |
| YAHQPRTAGEIPMEPGDIIGVAGN | 3.52 |
| YAHQPRTAAEIPMEPGDIIGVAGN | 3.53 |
| YAHQPRLADEIPMEPGDIIGVAGN | 3.71 |
| YAHQPRGADEIPMEPGDIIGVAGN | 4.18 |

| Variant | protein stability index |
| --- | --- |
| YAHQPRNADEIPMEPGDIIGVAGN | 4.51 |
| YAHAPRTADEIPMEPGDIIGVAGN | 4.07 |
| YAHQPRTADEIPMEPGDIFGVAGN | 3.78 |
| YAHQPRTADEIPMEPGDIYGVAGN | 4.06 |
| YAHQRRTADEIPMEPGDIIGVAGN | 3.55 |
| YAHQFRTADEIPMEPGDIIGVAGN | 3.11 |
| YAHQGRTADEIPMEPGDIIGVAGN | 3.96 |
| YAHQPRTADEIPMEPGDIIGVALN | 3.27 |
| YAHQPRTADEIPMEPGDIIGVAIN | 2.87 |
| YAHQPRTADEIPMEPGDIIGVAYN | 3.13 |
| YAHQPRTADEIPMEPGDIIGVASN | 3.77 |
| YAHQPRTADEIPMEPGDIIGVAGV | 3.61 |
| YAHQPRTADEIPMEPGDIIGVAGE | 4.59 |
| YAHQPRTADEIPMEPGDIIGVAGH | 3.39 |
| YAHQPRTADEIIMEPGDIIGVAGN | 3.27 |
| YAHQPRTADEIVMEPGDIIGVAGN | 3.72 |
| YAHQPRTADEITMEPGDIIGVAGN | 4.09 |
| YAHQPRTADEIRMEPGDIIGVAGN | 3.28 |
| YAHQPRTADEINMEPGDIIGVAGN | 3.73 |

Variants of: B2
Test: as above
Conditions: c terminus: a fixed tail appended

| Variant | protein stability index |
| --- | --- |
| SRHLNSQVKKTTTRWCHIVRDADS | 1.82 |
| SRHLNSQVKKTTTRWCHIVRDIDS | 1.45 |
| SRHLNSQVKKTTTRWCHIVRDEDS | 1.87 |
| SRHLNSQVKKTTTRWCHIVRDCDS | 1.73 |
| SRHLNSQVKKTTTRWCHIVRDLDS | 1.78 |
| SRHLNSQVKKTTTRWCHIVRDNDS | 1.48 |
| SRHLNSQVKKTTTRWCHIVRDYDS | 1.94 |
| SRHLNSQVKKTTTRWCHIVRDDDS | 1.72 |
| SRHLNSQVKKTTTRWCHIVRDPDS | 1.77 |
| SRHLNSQVKKTTTRWCHIVRDMDS | 2.15 |
| SRHLNSQVKKTTTRWCHIVRDTDS | 1.94 |
| SRHLNSQVKKTTTRWCHIVRDWDS | 2.08 |
| SRHLNSQVKKTTTRWCHIVRDKDS | 2.84 |
| SRHLNSQVKKTTTRWCHIVRDQDS | 2.65 |
| SRHLNSQVKKTTTRWCHIVRDFDS | 1.86 |
| SRHLNSQVKKTTTRWCHIVRVSDS | 1.37 |
| SRHLNSQVKKTTTRWCHIVRSSDS | 2.14 |
| SRHLNSQVKKTTTRWCHIVRYSDS | 1.69 |
| SRHLNSQVKKTTTRWCHIVRMSDS | 1.82 |
| SRHLNSQVKKTTTRWCHIVRESDS | 1.5 |
| SRHLNSQVKKTTTRWCHIVRHSDS | 1.44 |
| SRHLNSQVKKTTTRWCHIVRWSDS | 2.23 |
| SRHLNSQVKKTTTRWCHIVRKSDS | 2.39 |
| SRHLNSQVKKTTTRWCHIVRASDS | 2.5 |
| SRHLNSQVKKTTTRWCHIVRRSDS | 1.55 |
| SRHLNSQVKKTTTRWCHIVRTSDS | 2.79 |

| Variant | protein stability index |
| --- | --- |
| SRHLNSQVKKTTTRWCHIVRGSDS | 1.7 |
| SRHLNSQVKKTTTRWCHIVRPSDS | 2.57 |
| SRHLNSQVKKTTTRWCHIVRLSDS | 3.98 |
| SRHLNSQVKKTTTRWCHYVRDSDS | 1.74 |
| SRHLNSQVKKTTTRWCHIHRDSDS | 1.66 |
| SRHLNSQVKKTTTRWCHIWRDSDS | 1.62 |
| SRHLNSQVKKTTTRWCHIFRDSDS | 1.55 |
| SRHLNSQVKKTTTRWCHIPRDSDS | 2.42 |
| SRHLNSQVKKTTTRWCHIARDSDS | 2.8 |
| SRHLNSQVKKTTTRWCHIGRDSDS | 2.4 |
| SRHLNSQVKKTTTRWCHISRDSDS | 2.75 |
| SRHLNSQVKKTTTRWCHIRRDSDS | 2.2 |
| SRHLNSQVKKTTTRWCHIKRDSDS | 2.3 |
| SRHLNSQVKKTTTRWCHINRDSDS | 2.55 |
| SRHLNSQVKKTTTRWCHILRDSDS | 2.35 |
| SRHLNSQVKKTTTRWCHIDRDSDS | 3.23 |
| SRHLNSQVKKTTTRWCHIERDSDS | 3.71 |
| SRHLNSQVKKTTTRWCHITRDSDS | 3.13 |
| SRHLNSQVKKTTTRWCHIMRDSDS | 2.94 |
| SRHLNSQVKKTTTRWCHIQRDSDS | 2.81 |
| SRHLNSQVKKTTTRWCHIIRDSDS | 1.75 |
| SRHLNSQVKKTTTRWCHICRDSDS | 2.19 |
| SRHLNSQVKKTTTRWCHIYRDSDS | 2.44 |
| SRHLNSQVKKTTTRWCHIVRDSQS | 1.84 |
| SRHLNSQVKKTTTRWCHIVRDSNS | 1.99 |
| SRHLNSQVKKTTTRWCHIVRDSRS | 2.8 |

| Variant | protein stability index |
| --- | --- |
| SRHLNSQVKKTTTRWCHIVRDSIS | 2.16 |
| SRHLNSQVKKTTTRWCHIVRDSPS | 2.78 |
| SRHLNSQVKKTTTRWCHIVRDSFS | 2.65 |
| SRHLNSQVKKTTTRWCHIVRDSGS | 1.56 |
| SRHLNSQVKKTTTRWCHIVRDSKS | 1.74 |
| SRHLNSQVKKTTTRWCHIVRDSHS | 2.34 |
| SRHLNSQVKKTTTRWCHIVRDSTS | 1.78 |
| SRHLNSQVKKTTTRWCHIVRDSVS | 1.62 |
| SRHLNSQVKKTTTRWCHIVRDSES | 1.99 |
| SRHLNSQVKKTTTRWCHIVRDSAS | 2.59 |
| SRHLNSQVKKTTTRWCHIVRDSLS | 1.75 |
| SRHLNSQVKKTTTRWCHIVRDSMS | 2.19 |
| SRHLNSQVKKTTTRWCHIVRDSCS | 1.53 |
| SRHLNSQVKKTTTRWCHIVRDSSS | 3.1 |
| SRHLNSQVKKTTTRWCHIVRDSYS | 1.88 |
| SRHLNSQVKKTTTRWCHIVGDSDS | 1.76 |
| SRHLNSQVKKTTTRWCHIVVDSDS | 3.11 |
| SRHLNSQVKKTTTRWCHIVIDSDS | 1.18 |
| SRHLNSQVKKTTTRWCHIVMDSDS | 1.69 |
| SRHLNSQVKKTTTRWCHIVEDSDS | 2.75 |
| SRHLNSQVKKTTTRWCHIVFDSDS | 2.37 |
| SRHLNSQVKKTTTRWCHIVKDSDS | 1.25 |
| SRHLNSQVKKTTTRWCHIVQDSDS | 2.09 |
| SRHLNSQVKKTTTRWCHIVCDSDS | 1.39 |
| SRHLNSQVKKTTTRWCHIVYDSDS | 2.4 |
| SRHLNSQVKKTTTRWCHIVPDSDS | 2.3 |

| Variant | protein stability index |
| --- | --- |
| SRHLNSQVKKTTTRWCHIVDDSDS | 2.27 |
| SRHLNSQVKKTTTRWCHIVNDSDS | 1.45 |
| SRHLNSQVKKTTTRWCHIVWDSDS | 1.57 |
| SRHLNSQVKKTTTRWCHIVTDSDS | 2.61 |
| SRHLNSQVKKTTTRWCHIVLDSDS | 2.17 |
| SRHLNSQVKKTTTRWCHIVADSDS | 2.31 |
| SRHLNSQVKKTTTRWCHIVHDSDS | 2.29 |
| SRHLNSQVKKTTTRWCHIVRDSDH | 2.02 |
| SRHLNSQVKKTTTRWCHIVRDSDC | 2 |
| SRHLNSQVKKTTTRWCHIVRDSDT | 2.99 |
| SRHLNSQVKKTTTRWCHIVRDSDM | 2.21 |
| SRHLNSQVKKTTTRWCHIVRDSDR | 1.37 |
| SRHLNSQVKKTTTRWCHIVRDSDP | 2.01 |
| SRHLNSQVKKTTTRWCHIVRDSDD | 2.75 |
| SRHLNSQVKKTTTRWCHIVRDSDV | 1.88 |
| SRHLNSQVKKTTTRWCHIVRDSDE | 1.9 |
| SRHLNSQVKKTTTRWCHIVRDSDK | 1.92 |
| SRHLNSQVKKTTTRWCHIVRDSDG | 2.13 |
| SRHLNSQVKKTTTRWCHIVRDSDQ | 2.02 |
| SRHLNSQVKKTTTRWCHIVRDSDI | 1.36 |
| SRHLNSQVKKTTTRWCHIVRDSDF | 2.04 |
| SRHLNSQVKKTTTRWCHIVRDSDN | 2.66 |
| SRHLNSQVKKTTTRWCHIVRDSDW | 1.79 |
| SRHLNSQVKKTTTRWCHIVRDSDY | 1.53 |
| SRHLNSQVKKTTTRWCHIVRDSDL | 1.75 |
